Experimental findings from patent publication US20250066499A1 (SUNSHINE GUOJIAN PHARMACEUTICAL SHANGHAI, published 2025) are described below.

Positions count from the first letter of the chain named.

In general, EC50 refers to the concentration that produces a half-maximal response.

Experiment [1] has as its target T1, CD73-ND-V140A (human, UniProt P21589 27-317).
T1 construct: Alanine mutant of CD73-ND
T1 sequence: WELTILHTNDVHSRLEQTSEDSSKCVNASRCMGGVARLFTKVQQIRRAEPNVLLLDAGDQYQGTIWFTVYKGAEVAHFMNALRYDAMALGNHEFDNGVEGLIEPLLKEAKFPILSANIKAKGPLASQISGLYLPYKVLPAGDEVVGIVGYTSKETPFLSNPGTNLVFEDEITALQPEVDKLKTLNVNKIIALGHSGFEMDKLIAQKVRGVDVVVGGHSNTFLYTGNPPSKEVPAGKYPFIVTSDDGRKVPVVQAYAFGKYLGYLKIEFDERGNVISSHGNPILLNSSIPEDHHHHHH
As to the kind of experiment: ELISA; decline multiple of EC50 against CD73-ND. Here is the method: (§1) The ELISA plates were coated with SA protein diluted to 1.5 μg/mL in coating buffer (50 mM carbonate coating buffer, pH 9.6) and incubated overnight at 4° C. The supernatant was discarded, and the plates were washed three times with PBST. Then, 5% skimmed milk powder prepared with PBS was added for blocking and the plates were incubated for 2 h at 37° C. After washing the plates once with PBST, CD73-biotin protein (prepared by biotinylating CD73-His protein according to the EZ-Link NHS-Biotin Reagent instructions) was diluted to 0.5 μg/mL and added at 100 μL/well for incubation at room temperature for 1 h. The plates were washed three times with PBST, and the prepared murine-derived monoclonal antibodies against human CD73 were serially diluted with 1% BSA buffer prepared with PBST and added to the ELISA plates at 100 μl/well. The plates were incubated at 37° C. for 1 h. After washing the plates three times with PBST, HRP-labeled goat anti-mouse IgG secondary antibody was added and the plates were incubated for 30 min at 37° C. After washing the plates three times with PBST, the residual droplets were patted dry on absorbent paper as much as possible. Then, 100 μl of TMB color developing solution was added to each well, and the plates were incubated in the dark at room temperature for 5 min for color development. Subsequently, 50 μl of 2M H₂SO₄ stop solution was added to each well to terminate the substrate reaction. The OD values were read at 450 nm using a multimode microplate reader to analyze the binding ability of the tested antibodies to the target antigen human CD73-His.
(§2) Referring to the experimental method in Example 3, the affinity of 48A11-HuV33 for various mutant proteins of CD73-ND was determined. The SA protein was diluted to 1 μg/mL for coating the ELISA plates, and the biotinylated CD73 protein (CD73-biotin) was used at a concentration of 0.1 μg/mL.
Background: In an ELISA, binding on a coated surface is turned into a signal by an enzyme label.

The target of experiment [2] is T2, CD73-ND-P139A (human, UniProt P21589 27-317).
T2 construct: Alanine mutant of CD73-ND
T2 sequence: T1 sequence with P139A, A140V
The experiment can be described thus: ELISA; decline multiple of EC50 against CD73-ND. On the procedure: as §1, §2

Experiment [3] concerns the target T3, CD73-ND-his (human, UniProt P21589 27-317).
T3 construct: Biotinylated and captured on streptavidin in the ELISA
T3 sequence: T1 sequence with A140V
The experiment can be described thus: ELISA; decline multiple of EC50 against CD73-ND. On the procedure: as §1, §2

For experiment [4], the target named is T4, CD73-ND-D142A (human, UniProt P21589 27-317).
T4 construct: Alanine mutant of CD73-ND
T4 sequence: T1 sequence with A140V, D142A
As to the kind of experiment: ELISA; decline multiple of EC50 against CD73-ND. Here is the method: as §1, §2

Experiment [5] concerns the target T5, CD73-ND-L184A (human, UniProt P21589 27-317).
T5 construct: Alanine mutant of CD73-ND
T5 sequence: T1 sequence with A140V, L184A
As to the kind of experiment: ELISA; decline multiple of EC50 against CD73-ND. Here is the method:
as §1, §2

Experiment [6] deals with T1, CD73-ND-V140A. As to the kind of experiment: ELISA, biotinylated antigen on streptavidin plate. Here is the method: as §1, §2
For experiment [7], the target named is T2, CD73-ND-P139A. As to the kind of experiment: ELISA, biotinylated antigen on streptavidin plate. Here is the method:
as §1, §2

In experiment [8] the target is T3, CD73-ND-his. The experiment can be described thus: ELISA, biotinylated antigen on streptavidin plate. Here is the method: as §1, §2
In experiment [9] the target is T4, CD73-ND-D142A. As to the kind of experiment: ELISA, biotinylated antigen on streptavidin plate. Here is the method:
as §1, §2

For experiment [10], the target named is T5, CD73-ND-L184A. The experiment can be described thus: ELISA, biotinylated antigen on streptavidin plate. Here is the method: as §1, §2

B1: 48A11-HuV33 (antibody, human IgG4, V domains shown)
VH: QVQLVQSGAEVKKPGASVKVSCKASGYTFTSYWMHWVRQAPGQGLEWIGEINPSIGRTNYNEKFKSRVTLTRDTSTSTAYMELSSLRSEDTAVYYCARRVYGTMDYWGQGTLVTVSS
VL: DIQMTQSPSSLSASVGDRVTITCKASQDINSYLSWFQQKPGKSPKLLIYRANIWVDGVPSRFSGSGSGQDYTFTISSLQPEDIATYYCLQYDELYTFGQGTKVEIK
notes: Humanized
For the molecule B1, the “Ratio(EC50)” value in experiment [1] turned out to be 0.6 fold; in [2], 24.4 fold; in experiment [3], 1 fold; in experiment [4] it was 1.9 fold; in experiment [5], 3.4 fold. Also, the concentration for a half-maximal effect (EC50) in experiment [6] is 0.098 nM; in experiment [7], 4.34 nM; in experiment [8], 0.178 nM; in experiment [9], 0.344 nM; in experiment [10] it was 0.612 nM.
